# Data reported in PMC3377377.
# Molecular target: histone H3 tail symmetrically dimethylated on R2 and trimethylated on K4 (H3R2me2sK4me3)
# Assay: fluorescence polarisation
substance,measurement,value
PHD finger of RAG2 (domain or fragment),fold increase in binding affinity against H3K4me3 alone,20 fold
